From the supplement of paper PMC9170038

System: MS2 coat protein
Assay: apparent KD of MS2 coat protein; designed switch direction (-1 OFF switch, 1 ON switch): -1; higher = weaker reporter binding
How it was run: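 Normalised cluster fluorescence was curve-fitted, and each design's median over clusters is its apparent KD. Before this, SNAP-549-labelled MS2 coat protein was titrated from 0.7 or 1.5 nM, doubling to 3 µM, over RNA switches transcribed on Illumina chips by stalled E. coli RNA polymerase. Titrations had no input, 200 uM small-molecule ligand, or an oligonucleotide input, and steps lasted 0.8–1.5 h (lowest) to 10–20 min (highest).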

[1] = input ligand: microRNA oligo, concentration not stated
[2] = Eterna round: R95, input ligand: microRNA oligo, concentration not stated
[3] = Eterna round: R95, input ligand: FMN 200 uM
[4] = Eterna round: R95, input ligand: none

Sequence | apparent KD of MS2 coat protein (input ligand: FMN 200 uM) | apparent KD of MS2 coat protein (input ligand: none) | apparent KD of MS2 coat protein [2] | further results
AUAAUGUGAGGAUAUCAGUCGACUAGCUGCGGCUAGUCGACUGAGAAGGUACAUGAGGAUCACCCAUGUGGUUC [E4/11-B3] (Eterna round: R97, puzzle: Exclusion 4) | 904 nM | 434 nM |  | 
AUAAUUAAUGCAGGAUAUCAGCACGUGUAGUGCUGAGAAGGGCACAUGAGGAUCACCCAUGUGAUCAAUUAAUAUUAAUAUUAU [ENG1/11-D3] (Eterna round: R96, puzzle: Exclusion NG 1) |  |  |  | apparent KD of MS2 coat protein [1]: 48.4 nM
AUACAGGAAGGAUAUACAUGAGGAUCACCCAUGUAGGAAAACCUACCAAAAGACCCAAGUAGAAGGUCCGAUAC [jl-ex3-4.74 ViennaUCT mod] (Eterna round: R97, puzzle: Exclusion 3) | 21.8 nM | 19.4 nM |  | 
AUACCACGAGGAUAUCGUCUAUUUCACAUGAGGAUCACCCAUGUUAUCUUUGUUUCGUUUCGAGAAGGCGUGUUUU [JR_E5_Sub077] (puzzle: Exclusion 5) |  |  | 30.1 nM | 
AUACCACGAGGAUAUCGUCUAUUUUACAUGAGGAUCACCCAUGUUAUCUUUGUAAUGUUUCGAGAAGGCGUGUUUU [JR_E5_Sub080] (puzzle: Exclusion 5) |  |  | 31.7 nM | 
AUACCACGAGGAUAUCGUCUAUUUUACAUGAGGAUCACCCAUGUUAUCUUUGUUUUGUUUCGAGAAGGCGUGUUUU [JR_E5_Sub079] (puzzle: Exclusion 5) |  |  | 24.6 nM | 
AUAGAGUCAGGAUAUACAGGUGGAGGAGAGCAGCAUAAGGAGUAGAAGGGACAUGAGGAUCACCCAUGUAAGUG [JR_Exclu4_Sub059] (puzzle: Exclusion 4) |  |  | 63.9 nM | apparent KD of MS2 coat protein [3]: 45.9 nM; apparent KD of MS2 coat protein [4]: 56.9 nM
AUAGAGUUAGGAUAUGAGAGGCCGAACAUGAGGAUCACCCAUGUUCCGCGUGUUGCUCCCUUAGAAGGAACGAAUA [EX5 B.3] (Eterna round: R97, puzzle: Exclusion 5) | 14.7 nM | 22 nM |  | 
AUAGUAGAAGUGAGGAUAUCGUAGAUUUUAGGAAACGAGAAGGCACAUGAGGAUCACCCAUGUAAGAUGGAGGU [JR_BMOE4_Sub051] (Eterna round: R96, puzzle: Brourd's mod of Exclusion 4) | 380 nM | 132 nM |  | apparent KD of MS2 coat protein [1]: 126 nM
AUAGUAGAAGUGAGGAUAUCGUAGAUUUUAGGAAACGAGAAGGCACAUGAGGAUCACCCAUGUAAGAUGGAGGU [JR_BMOE4_Sub051] (puzzle: Brourd's mod of Exclusion 4) |  |  | 263 nM | apparent KD of MS2 coat protein [3]: 104 nM; apparent KD of MS2 coat protein [4]: 124 nM
AUAGUCUGGCAAGGAUAUAGGAAAGGAAGUGUACUAGAAGGUGCGCAGACAUGAGGAUCACCCAUGUGAGCCGACGAAAUAAUA [PowerStrip EXNG 1.17] (Eterna round: R96, puzzle: Exclusion NG 1) | 523 nM | 141 nM |  | apparent KD of MS2 coat protein [1]: 88.5 nM
AUAUAACAUGAGGAUCACCCAUGUGAGGAUAUGCGAUAUAUAAUAAUAAUAAUAAUAAGCAGAAGGCACAAAAU [My FIrst Design] (puzzle: Exclusion 1) |  |  | 78.7 nM | apparent KD of MS2 coat protein [3]: 60.2 nM; apparent KD of MS2 coat protein [4]: 71.7 nM
AUAUACGGAGGAUAUACUUGAGGAUCACCCAAGUGGGAUCCCGUUUGGGCGGUAAAUAGUAGAAGGCCGACCCA [jl-ex3-4.41 ViennaUCT mod] (Eterna round: R97, puzzle: Exclusion 3) | 31.3 nM | 29 nM |  | 
AUAUACGUUGAGGAUAUGCGAAUAAGUAUAGUUGCAGAAGGCGACACAUGAGGAUCACCCAUGUUCAUGGACAC [LRO-Ex6-03] (puzzle: Exclusion 6) |  |  | 26.6 nM | 
AUAUAGCGAGGAUAUACAUGAGGAUCACCCAUGUGGUAGUAGAUACGGUAGGGCUAGUGUAGAAGGUGCUAUGA [EX3 #12] (Eterna round: R97, puzzle: Exclusion 3) | 450 nM | 231 nM |  | 
AUAUAGUCAGGAUAUCGAAGUGUGUGUUGGUUUGUAAUUUACGAGAAGGGACAUGAGGAUCACCCAUGUAGGAA [JR_Exclusion4)Sub002] (Eterna round: R96, puzzle: Exclusion 4) | 49.3 nM | 44.1 nM |  | apparent KD of MS2 coat protein [1]: 33.8 nM
AUAUAGUCAGGAUAUCGAAGUGUGUGUUGGUUUGUAAUUUACGAGAAGGGACAUGAGGAUCACCCAUGUAGGAA [JR_Exclusion4)Sub002] (puzzle: Exclusion 4) |  |  | 35.8 nM | 
AUAUAUAGUGUGAGGAUAUGCUGGUCCUUGGAUCAGCAGAAGGCACAUGAGGAUCACCCAUGUAGUUAAAUAUA [Mat - Exclusion 4 - JL Mod - D19] (puzzle: Brourd's mod of Exclusion 4) |  |  | 32.1 nM | 
AUAUAUAGUGUGAGGAUAUGCUGGUCCUUGGAUCAGCAGAAGGCACAUGAGGAUCACCCAUGUAGUUUAUUUUG [Mat - Exclusion 4 - JL Mod - D6] (puzzle: Brourd's mod of Exclusion 4) |  |  | 17.3 nM | 
AUAUCAAGCAAGGAUAUGCAAAUGGUUAUUUAUGCAGAAGGUGCAACAUGAGGAUCACCCAUGUUUCUGGGUUU [JR_E6_Sub049] (Eterna round: R96, puzzle: Exclusion 6) | 124 nM | 55.7 nM |  | apparent KD of MS2 coat protein [1]: 41.7 nM
AUAUCAAGCAAGGAUAUGCAAAUGGUUAUUUAUGCAGAAGGUGCAACAUGAGGAUCACCCAUGUUUCUGGGUUU [JR_E6_Sub049] (puzzle: Exclusion 6) |  |  | 48.2 nM | 
AUAUCACAUGAGGAUCACCCAUGUCAGGAUAUCGACUGAACAGCUUCGGCUGUUCAGUCGAGAAGGGACAAUUA [Brourdxlusion 2 - Jieux - Exclusion 1] (Eterna round: R97, puzzle: Exclusion 1) | 84.9 nM | 56.2 nM |  | 
AUAUCGUGAGGAUAUCCAAUAUAUGACAUGAGGAUCACCCAUGUUUCCACUCGUACCUCCGGAGAAGGCACAGUUU [Ex5 #71] (Eterna round: R97, puzzle: Exclusion 5) | 22.4 nM | 32.2 nM |  | 
AUAUGCAAGUAAAGAUCCUACAUGAGGAUCACCCAUGUGCUCGUCUUAUAAAGUACUAUCACGAAAGUGAUAGUACA [Mat - Sensor v3 - turn-off var 1 - Eli Mod - D84] (puzzle: Sensor v3, turn-off variant 1) |  |  | 15.6 nM | apparent KD of MS2 coat protein [3]: 215 nM; apparent KD of MS2 coat protein [4]: 170 nM
AUAUUACAUGAGGAUCACCCAUGUGAGGAUAUGGAGAGCGACCGCCCGGUCGCGUACACCAGAAGGCGCAGGCG [1st #59] (Eterna round: R97, puzzle: Exclusion 1) | 85.7 nM | 41.1 nM |  | 
AUAUUACAUGAGGAUCACCCAUGUGAGGAUAUGGAGCGAGACUGUCCUGUCGCGUACACCAGAAGGCGCGGGUG [1st #52] (Eterna round: R97, puzzle: Exclusion 1) | 183 nM | 118 nM |  | 
AUAUUGUGAGGAUAUGAACUUAGUAUCGAAAGAUACAAAGUUCAGAAGGCACAUGAGGAUCACCCAUGUUUCUC [Long static hairpin v7] (Eterna round: R97, puzzle: Exclusion 4) | 703 nM | 76.1 nM |  | 
